Tests used:
[1] = molecular target: SARS-CoV spike receptor-binding domain (S-RBD), wild-type (SARS-CoV) (UniProt P59594)
[2] = molecular target: SARS-CoV-2 spike receptor-binding domain (S-RBD), wild-type (SARS-CoV-2) (UniProt P0DTC2)

Substance	IC50 of entry inhibition, SARS-CoV pseudovirus on HEK293T-ACE2 cells [1] [µg/mL]	IC50 of entry inhibition, wild-type SARS-CoV-2 pseudovirus on HEK293T-ACE2 cells [2] [µg/mL]
ACE2[W19/Y330]-Fc (from UniProt Q9BYF1 19-615) (Fc fusion)	0.34	0.09
ACE2[W19/W27/Y330]-Fc (from UniProt Q9BYF1 19-615) (Fc fusion)	0.49	0.53
ACE2[W27/Y330]-Fc (from UniProt Q9BYF1 19-615) (Fc fusion)	1.04	0.25

Reference: PMC8444507
